Experiments:
[1] = biological target: T1, synthetic peptide representing the β1 integrin cytoplasmic domain, P05556
T1 chain: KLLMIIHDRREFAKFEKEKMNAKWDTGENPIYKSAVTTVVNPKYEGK

[2] = biological target: T2, synthetic peptide representing the β3 integrin cytoplasmic domain, P05106
T2 chain: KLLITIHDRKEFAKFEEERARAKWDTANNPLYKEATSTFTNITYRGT

B1: integrin linked kinase (ILK), full length (protein)
chain: MDDIFTQCREGNAVAVRLWLDNTENDLNQGDDHGFSPLHWACREGRSAVVEMLIMRGARINVMNRGDDTPLHLAASHGHRDIVQKLLQYKADINAVNEHGNVPLHYACFWGQDQVAEDLVANGALVSICNKYGEMPVDKAKAPLRELLRERAEKMGQNLNRIPYKDTFWKGTTRTRPRNGTLNKHSGIDFKQLNFLTKLNENHSGELWKGRWQGNDIVVKVLKVRDWSTRKSRDFNEECPRLRIFSHPNVLPVLGACQSPPAPHPTLITHWMPYGSLYNVLHEGTNFVVDQSQAVKFALDMARGMAFLHTLEPLIPRHALNSRSVMIDEDMTARISMADVKFSFQCPGRMYAPAWVAPEALQKKPEDTNRRSADMWSFAVLLWELVTREVPFADLSNMEIGMKVALEGLRPTIPPGISPHVCKLMKICMNEDPAKRPKFDMIVPILEKMQDK
- autophosphorylation of ILK in immune complex kinase assay [1]: The β1 peptide selectively inhibited autophosphorylation of ILK in these reactions
- phosphorylation of the synthetic peptide in ILK immune complex kinase assay (91-3 immunoprecipitates of PC3 lysates) [1]: The β1 peptide was labeled on serine and threonine residues, with approximately equal stoichiometry
- phosphorylation of the synthetic peptide in ILK immune complex kinase assay (91-3 immunoprecipitates of PC3 lysates) [2]: a similar peptide representing the β3 cytoplasmic domain was not detectably labeled by P59ILK

B2: GST-ILK^232 (GST fusion of ILK amino acid residues 132-451) (protein)
chain: YGEMPVDKAKAPLRELLRERAEKMGQNLNRIPYKDTFWKGTTRTRPRNGTLNKHSGIDFKQLNFLTKLNENHSGELWKGRWQGNDIVVKVLKVRDWSTRKSRDFNEECPRLRIFSHPNVLPVLGACQSPPAPHPTLITHWMPYGSLYNVLHEGTNFVVDQSQAVKFALDMARGMAFLHTLEPLIPRHALNSRSVMIDEDMTARISMADVKFSFQCPGRMYAPAWVAPEALQKKPEDTNRRSADMWSFAVLLWELVTREVPFADLSNMEIGMKVALEGLRPTIPPGISPHVCKLMKICMNEDPAKRPKFDMIVPILEKMQD
- phosphorylation of the synthetic peptide by recombinant kinase in vitro [1]: The results demonstrating phosphorylation of synthetic β peptides by endogenous ILK are identical to those seen with recombinant GST-ILK^232
- phosphorylation of the synthetic peptide by recombinant kinase in vitro [2]: The results demonstrating phosphorylation of synthetic β peptides by endogenous ILK are identical to those seen with recombinant GST-ILK^232

— patent US20080039419
